Measurements taken from the supplement of paper PMC7877785.
± gives the uncertainty stated by the source.

Assay: self-splicing fitness, log relative to wild type (ln ratio); higher = more splicing; Tetrahymena group I intron in knt gene, E. coli kanamycin selection, DiMSum; sequences stand for … in CUCUCU…GGAGGGAAAAGUUAUCAGGCAUGCACCUGGUAGCUAGUCUUUAAACCAAUAGAUUGCAUCGGUUUAAAAGGCAAGACCGUCAAAUUGCGGGAAAGGGGUCAACAGCCGUUCAGUACCAAGUCUCAGGGGAAACUUUGAGAUGGCCUUGCAAAGGGUAUGGUAAUAAGCUGACGGACAUGGUCCUAACCACGCAGCCAAGUCCUAAGUCAACAGAUCUUCUGUUGAUAUGGAUGCAGUUCACAGACUAAAUGUCGGUCGGGGAAGAUGUAUUCUUCUCAUAAGAUAUAGUCGGACCUCUCCUUAAUGGGAGCUAGCGGAUGAAGUGAUGCAACACUGGAGCCGCUGGGAACUAAUUUGUAUGCGAAAGUAUAUUGAUUAGUUUUGGAGUACUCGUGGUCG
Summary of the method: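 DiMSum derived fitness as the error-weighted combination of fold changes across replicates, kanamycin versus no kanamycin, normalised to wild type. E. coli BL21(DE3) held the library, which randomised all eight P1ex-region intron nucleotides within the knt kanamycin-resistance gene on pET-22b(+). Six replicate transformations grew overnight at 37°C or 30°C on LB agar with or without 25 μg/mL kanamycin, also containing 100 μg/mL carbenicillin, 50 μM IPTG and 0.2% rhamnose, and pooled colonies were amplicon-sequenced on an Illumina HiSeq 2500.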

Row | Sequence | self-splicing fitness (ln) (30 °C) | self-splicing fitness (ln) (37 °C)
1 | CGCCAGCAAUAUUACGCCGG | -3.13 ± 0.2 | -3.21 ± 0.35
2 | CGCCAGCAAUAUUACGCGGU | -3.04 ± 0.13 | -3.3 ± 0.22
3 | CGCCAGCAAUAUUACGCGUA | -2.72 ± 0.18 | -2.31 ± 0.18
4 | CGCCAGCAAUAUUACGCGUU | -2.03 ± 0.12 | -2.31 ± 0.19
5 | CGCCAGCAAUAUUACGCUAA | -2.34 ± 0.15 | -1.29 ± 0.14
6 | CGCCAGCAAUAUUACGCUGA | -3.51 ± 0.24 | -2.24 ± 0.28
7 | CGCCAGCAAUAUUACGGCCC | -2.2 ± 0.12 | -0.207 ± 0.25
8 | CGCCAGCAAUAUUACGGGUA | -0.998 ± 0.064 | -0.377 ± 0.069
9 | CGCCAGCAAUAUUACGGGUC | -2.81 ± 0.14 | -2.6 ± 0.17
10 | CGCCAGCAAUAUUACGGGUG | -4.13 ± 0.14 | -2.58 ± 0.12
11 | CGCCAGCAAUAUUACGGUCA | -0.14 ± 0.066 | 0.542 ± 0.092
12 | CGCCAGCAAUAUUACGUAAC | -3.91 ± 0.24 | -2.96 ± 0.28
13 | CGCCAGCAAUAUUACGUAGU | -2.67 ± 0.1 | -1.18 ± 0.11
14 | CGCCAGCAAUAUUACGUCCG | -0.462 ± 0.1 | -0.546 ± 0.12
15 | CGCCAGCAAUAUUACGUUAA | -3.31 ± 0.22 | -2.57 ± 0.17
16 | CGCCAGCAAUAUUACGUUAU | -3.32 ± 0.16 | -2.22 ± 0.18
17 | CGCCAGCAAUAUUACGUUGC | -3.95 ± 0.29 | -2.45 ± 0.22
18 | CGCCAGCAAUAUUACGUUUC | -3.41 ± 0.12 | -2.42 ± 0.24
19 | CGCGAGCAAUAUUACGAAAG | -2.75 ± 0.26 | -1.65 ± 0.23
20 | CGCGAGCAAUAUUACGAACA | -3.27 ± 0.45 | -1.19 ± 0.23
21 | CGCGAGCAAUAUUACGACAC | -3.42 ± 0.49 | -1.36 ± 0.41
22 | CGCGAGCAAUAUUACGAUAC | -3.81 ± 0.3 | -2.56 ± 0.28
23 | CGCGAGCAAUAUUACGAUGG | -1.66 ± 0.12 | -1.2 ± 0.14
24 | CGCGAGCAAUAUUACGAUGU | -3.79 ± 0.23 | -2.74 ± 0.22
25 | CGCGAGCAAUAUUACGCAUG | -2.48 ± 0.2 | -2.14 ± 0.16

Row | Sequence | self-splicing fitness (ln) (30 °C) | self-splicing fitness (ln) (37 °C)
26 | CGCGAGCAAUAUUACGCCUA |  | -2.42 ± 0.45
27 | CGCGAGCAAUAUUACGCCUG | -2.95 ± 0.34 | -1.99 ± 0.26
28 | CGCGAGCAAUAUUACGCGAU | -3.96 ± 0.24 | -3.09 ± 0.27
29 | CGCGAGCAAUAUUACGCGGU | -3.56 ± 0.3 | -2.79 ± 0.18
30 | CGCGAGCAAUAUUACGCUAU | -3.44 ± 0.34 | -2.2 ± 0.23
31 | CGCGAGCAAUAUUACGCUUA | -2.27 ± 0.23 | -1.97 ± 0.24
32 | CGCGAGCAAUAUUACGGCAC |  | -1.87 ± 0.41
33 | CGCGAGCAAUAUUACGGUAG | -1.19 ± 0.12 | -0.901 ± 0.13
34 | CGCGAGCAAUAUUACGGUGC |  | -2.47 ± 0.5
35 | CGCGAGCAAUAUUACGGUGU | -3.91 ± 0.17 | -2.34 ± 0.15
36 | CGCGAGCAAUAUUACGUCCU |  | -1.69 ± 0.48
37 | CGCGAGCAAUAUUACGUGAG | -4.51 ± 0.39 | -2.54 ± 0.32
38 | CGCGAGCAAUAUUACGUUCA | -2.43 ± 0.19 | -1.5 ± 0.17
39 | CGCGAGCAAUAUUACGUUUA | -3.98 ± 0.25 | -3.3 ± 0.28
40 | CGCUAGCAAUAUUACGAAAG | -1.17 ± 0.091 | -0.395 ± 0.1
41 | CGCUAGCAAUAUUACGAACC | -2.92 ± 0.2 | -0.219 ± 0.16
42 | CGCUAGCAAUAUUACGACAA | -2.04 ± 0.18 | -1.83 ± 0.2
43 | CGCUAGCAAUAUUACGACAU | -3.31 ± 0.022 | -2.06 ± 0.036
44 | CGCUAGCAAUAUUACGACCC | -0.616 ± 0.16 | -0.956 ± 0.45
45 | CGCUAGCAAUAUUACGACGG | -0.226 ± 0.11 | 0.553 ± 0.14
46 | CGCUAGCAAUAUUACGACUC | -1.4 ± 0.1 | -1.61 ± 0.15
47 | CGCUAGCAAUAUUACGAGAC | -3.36 ± 0.12 | -2.45 ± 0.13
48 | CGCUAGCAAUAUUACGAGUU | -2.49 ± 0.1 | -2.38 ± 0.15
49 | CGCUAGCAAUAUUACGAUAA | -4.27 ± 0.36 | -2.35 ± 0.32
50 | CGCUAGCAAUAUUACGCAAA |  | -3.01 ± 0.47

Row | Sequence | self-splicing fitness (ln) (30 °C) | self-splicing fitness (ln) (37 °C)
51 | CGCUAGCAAUAUUACGCACA | -1.37 ± 0.13 | -0.405 ± 0.1
52 | CGCUAGCAAUAUUACGCCAG | -3.09 ± 0.15 | -2.81 ± 0.29
53 | CGCUAGCAAUAUUACGCGCC | -2.52 ± 0.19 | -2.24 ± 0.35
54 | CGCUAGCAAUAUUACGCGGG | -4.55 ± 0.26 | -2.08 ± 0.16
55 | CGCUAGCAAUAUUACGCUUC | -2.39 ± 0.28 | -2.39 ± 0.39
56 | CGCUAGCAAUAUUACGGACA | -0.438 ± 0.14 | -0.65 ± 0.13
57 | CGCUAGCAAUAUUACGGAGC | -2.64 ± 0.2 | -1.84 ± 0.24
58 | CGCUAGCAAUAUUACGGCGG | -1.68 ± 0.089 | -0.662 ± 0.11
59 | CGCUAGCAAUAUUACGGCUG | -1.13 ± 0.12 | -0.227 ± 0.14
60 | CGCUAGCAAUAUUACGGGCG | -2.95 ± 0.28 | -2.74 ± 0.44
61 | CGCUAGCAAUAUUACGUAAA | -2.46 ± 0.2 | -1.33 ± 0.31
62 | CGCUAGCAAUAUUACGUCAG | -1.4 ± 0.12 | -0.542 ± 0.14
63 | CGCUAGCAAUAUUACGUGCU | -1.82 ± 0.16 | -1.63 ± 0.18
64 | CGCUAGCAAUAUUACGUGGU | -3.55 ± 0.27 | -2.61 ± 0.26
65 | CGCUAGCAAUAUUACGUUAU | -4.99 ± 0.32 | -3.36 ± 0.26
66 | CGCUAGCAAUAUUACGUUCC | -2.83 ± 0.15 | -2.81 ± 0.31
67 | CGGAAGCAAUAUUACGAAAG | -0.838 ± 0.12 | -0.911 ± 0.19
68 | CGGAAGCAAUAUUACGAAGG | -1.17 ± 0.11 | -0.983 ± 0.18
69 | CGGAAGCAAUAUUACGAAUC | -3.29 ± 0.3 | -2.46 ± 0.29
70 | CGGAAGCAAUAUUACGACAC |  | -1.66 ± 0.38
71 | CGGAAGCAAUAUUACGAGCA | -2.83 ± 0.24 | -1.82 ± 0.18
72 | CGGAAGCAAUAUUACGAGUC | -2.83 ± 0.22 | -2.39 ± 0.31
73 | CGGAAGCAAUAUUACGAUCC | -3.21 ± 0.37 | -1.42 ± 0.23
74 | CGGAAGCAAUAUUACGCCCA | -0.0821 ± 0.13 | 0.194 ± 0.2
75 | CGGAAGCAAUAUUACGCCCU | -0.363 ± 0.13 | 0.204 ± 0.15

Row | Sequence | self-splicing fitness (ln) (30 °C) | self-splicing fitness (ln) (37 °C)
76 | CGGAAGCAAUAUUACGCCGU | -2.88 ± 0.44 | -1.91 ± 0.28
77 | CGGAAGCAAUAUUACGCUAA | -2.74 ± 0.17 | -3.01 ± 0.29
78 | CGGAAGCAAUAUUACGCUUG |  | -2.42 ± 0.27
79 | CGGAAGCAAUAUUACGCUUU | -2.02 ± 0.18 | -3.26 ± 0.33
80 | CGGAAGCAAUAUUACGGACA | 0.389 ± 0.13 | -0.329 ± 0.15
81 | CGGAAGCAAUAUUACGGCCC | 0.0304 ± 0.18 | 0.0512 ± 0.23
82 | CGGAAGCAAUAUUACGGGGC | -2.49 ± 0.19 | -2.71 ± 0.26
83 | CGGAAGCAAUAUUACGUACA | -0.615 ± 0.13 | -0.219 ± 0.15
84 | CGGAAGCAAUAUUACGUACG | -3.87 ± 0.24 | -2.26 ± 0.21
85 | CGGAAGCAAUAUUACGUAGG | -0.48 ± 0.078 | -1.38 ± 0.12
86 | CGGAAGCAAUAUUACGUAUA | -2.82 ± 0.24 | -2.63 ± 0.3
87 | CGGAAGCAAUAUUACGUCAG | -1.33 ± 0.13 | -0.154 ± 0.17
88 | CGGAAGCAAUAUUACGUCCA | -0.281 ± 0.097 | 0.585 ± 0.13
89 | CGGAAGCAAUAUUACGUGCU | -3.85 ± 0.24 | -2.32 ± 0.23
90 | CGGAAGCAAUAUUACGUUGG | -1.89 ± 0.071 | -0.688 ± 0.077
91 | CGGCAGCAAUAUUACGAAUA |  | -2.07 ± 0.27
92 | CGGCAGCAAUAUUACGACCU | -0.341 ± 0.089 | -0.0632 ± 0.11
93 | CGGCAGCAAUAUUACGAUGU | -3.85 ± 0.31 | -3.14 ± 0.35
94 | CGGCAGCAAUAUUACGCAGU | -3.02 ± 0.17 | -2.07 ± 0.29
95 | CGGCAGCAAUAUUACGCGCA | -0.939 ± 0.097 | -0.247 ± 0.1
96 | CGGCAGCAAUAUUACGCGCC | -4.3 ± 0.43 | -3.04 ± 0.47
97 | CGGCAGCAAUAUUACGCGCG | -2.65 ± 0.22 | -1.54 ± 0.23
